These results are taken from patent US20180193475A1 (Novartis, published 2018).

The chains are these.
T1: Mouse cKIT ECD, C-terminal 6x His (Sino Biological Inc, catalog number 50530-M08H) (mouse, UniProt P05532 25-527)
T1 construct: extracellular domain; Bought protein; not shown: C-terminal 6x His tag
T1 sequence (looked up): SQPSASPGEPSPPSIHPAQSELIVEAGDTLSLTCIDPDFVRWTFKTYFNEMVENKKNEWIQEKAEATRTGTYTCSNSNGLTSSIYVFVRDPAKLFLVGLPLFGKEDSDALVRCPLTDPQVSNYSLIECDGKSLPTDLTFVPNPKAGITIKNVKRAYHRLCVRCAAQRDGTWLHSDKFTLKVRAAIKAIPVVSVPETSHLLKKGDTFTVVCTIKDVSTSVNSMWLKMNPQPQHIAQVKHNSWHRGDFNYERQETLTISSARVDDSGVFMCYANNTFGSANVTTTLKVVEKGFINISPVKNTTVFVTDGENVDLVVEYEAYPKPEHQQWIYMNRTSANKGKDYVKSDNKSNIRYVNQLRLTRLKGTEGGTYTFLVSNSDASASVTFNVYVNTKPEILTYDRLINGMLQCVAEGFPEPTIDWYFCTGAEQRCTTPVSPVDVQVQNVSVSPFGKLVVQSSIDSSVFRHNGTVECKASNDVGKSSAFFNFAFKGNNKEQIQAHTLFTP

T2: Rat cKIT D1-5, C-terminal mFc (rat)
T2 construct: The whole entry is rat cKIT ECD residues 25-526, a linker and a mouse Fc tag; also called rat cKIT-mFc
T2 chain: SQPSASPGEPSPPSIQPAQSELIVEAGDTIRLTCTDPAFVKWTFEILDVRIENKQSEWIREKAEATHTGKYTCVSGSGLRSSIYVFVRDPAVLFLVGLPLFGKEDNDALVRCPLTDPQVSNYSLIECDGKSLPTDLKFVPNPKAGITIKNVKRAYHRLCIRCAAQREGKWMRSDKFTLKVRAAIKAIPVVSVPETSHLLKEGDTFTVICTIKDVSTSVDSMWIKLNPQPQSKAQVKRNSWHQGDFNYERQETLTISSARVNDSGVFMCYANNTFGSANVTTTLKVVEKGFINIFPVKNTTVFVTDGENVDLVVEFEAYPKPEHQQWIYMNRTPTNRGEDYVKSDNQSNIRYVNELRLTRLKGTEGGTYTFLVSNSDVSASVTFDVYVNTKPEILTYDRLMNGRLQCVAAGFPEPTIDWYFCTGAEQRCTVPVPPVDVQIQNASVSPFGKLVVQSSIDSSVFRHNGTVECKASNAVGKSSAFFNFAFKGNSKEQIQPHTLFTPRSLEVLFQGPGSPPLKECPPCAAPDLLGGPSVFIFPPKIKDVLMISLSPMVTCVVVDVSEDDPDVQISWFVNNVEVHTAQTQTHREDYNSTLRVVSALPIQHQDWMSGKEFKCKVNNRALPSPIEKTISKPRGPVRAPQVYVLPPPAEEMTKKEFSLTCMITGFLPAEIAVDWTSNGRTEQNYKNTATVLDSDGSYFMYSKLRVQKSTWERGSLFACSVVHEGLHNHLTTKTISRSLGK

T3: Cynomolgus monkey cKIT D1-5 (cyno cKIT ECD, C-terminal 6x His) (cynomolgus monkey, UniProt P10721 25-520 (human entry))
T3 construct: The signal peptide is not part of the protein in the assay; The entry includes the C-terminal His tag; also called cynomolgus monkey ECD
T3 chain: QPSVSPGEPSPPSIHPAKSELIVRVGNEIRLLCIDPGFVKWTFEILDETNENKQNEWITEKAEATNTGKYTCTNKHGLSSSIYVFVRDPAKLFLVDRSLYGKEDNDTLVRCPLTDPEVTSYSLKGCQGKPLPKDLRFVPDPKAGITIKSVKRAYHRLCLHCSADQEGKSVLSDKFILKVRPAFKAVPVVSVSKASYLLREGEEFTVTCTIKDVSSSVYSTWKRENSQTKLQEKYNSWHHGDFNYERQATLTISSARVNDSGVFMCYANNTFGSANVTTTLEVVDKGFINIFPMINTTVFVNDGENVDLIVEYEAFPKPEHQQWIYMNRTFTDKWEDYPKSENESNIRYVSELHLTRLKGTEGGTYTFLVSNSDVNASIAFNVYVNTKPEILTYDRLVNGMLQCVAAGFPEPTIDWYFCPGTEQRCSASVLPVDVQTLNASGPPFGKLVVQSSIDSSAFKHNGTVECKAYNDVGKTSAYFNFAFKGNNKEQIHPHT

B1: NEG026 (antibody, human IgG1, kappa, V domains shown)
VH: EVQLVESGGGLVQPGGSLRLSCAASGFTFSDYYMAWVRQAPGKGLEWVANINQNTGSTYYVDSVQGRFTISRDNAKNSLYLQMNSLRAEDTAVYYCARGDYYGTTYWYFDVWGQGTTVTVSS
VL: EIVMTQSPATLSLSPGERATLSCRASQDISNYLNWYQQKPGQAPRLLIYYTSRLQSGIPARFSGSGSGTDYTLTISSLEPEDFAVYYCQQGKKLWSFGGGTKVEIKR
notes: Humanized, optimized variant of 9P3; human IgG1 kappa
B2: NEG086 (antibody, human IgG1, kappa, V domains shown)
VH: B1 VH with N54I, T55A
VL: DIQMTQSPSSLSASVGDRVTITCRASQSISSYLNWYQQKPGKAPKLLIYYTSRLQSGVPSRFSGSGSGTDFTLTISSLQPEDFATYYCQQGRRLWSFGGGTKVEIKR
notes: as for B1
B3: NEG027 (antibody, human IgG1, kappa, V domains shown)
VH: B1 VH with N50S, V61L, Q65R
VL: B1 VL
notes: as for B1
B4: NEG085 (antibody, human IgG1, kappa, V domains shown)
VH: B1 VH with T28A, D31G, Q53Y, N54P, T55G, G56S, V61L, Q65K
VL: B2 VL
B5: NEG087 (antibody, human IgG1, kappa, V domains shown)
VH: B1 VH with N50S, V61L, Q65R
VL: B2 VL
notes: as for B1
B6: NEG024 (antibody, human IgG1, kappa, V domains shown)
VH: B1 VH with N54I, T55A, V61L, Q65R
VL: B1 VL
notes: as for B1
B7: 20507 (antibody, human IgG1, kappa, V domains shown)
VH: QVQLVQSGAEVKKPGSSVKVSCKASGGTFSSYAISWVRQAPGQGLEWMGTIGPFEGQPRYAQKFQGRVTITADESTSTAYMELSSLRSEDTAVYYCARGGYISDFDVWGQGTLVTVSS
VL: DIQMTQSPSSLSASVGDRVTITCRASQSISNYLAWYQQKPGKAPKLLIYDASSLQSGVPSRFSGSGSGTDFTLTISSLQPEDFATYYCQQYYYESITFGQGTKVEIKR
notes: HuCAL-derived human IgG1 kappa
B8: anti-cKIT antibody 9P3 (antibody, V domains shown)
VH: EVRLVESEGGLVQPRSSMKLSCTASGFTFSDYYMAWVRQVPEKGLEWVANINYDGSSTYYLDSLKSRFIISRDNAKNILYLQMSSLKSEDTATYYCARGDYYGTTYWYFDVWGTGTTVTVSS
VL: DIQMTQTTSSLSASLGDRVTISCRASQDISNYLNWYQQKPDGTVKLLIYYTSRLQSGVPSRFSGSGSGTDYSLTISNLEQEDIATYFCQQGKKLWSFGGGTKLEIKR
notes: Hybridoma-derived mouse variable domains
B9: 20376 (antibody, human IgG1, lambda, V domains shown)
VH: QVQLVQSGAEVKKPGSSVKVSCKASGGTFSSYAISWVRQAPGQGLEWMGGIIPMSGRTTYAQKFQGRVTITADESTSTAYMELSSLRSEDTAVYYCARDYGPEAPDYGQSTSYFWYYAFDPWGQGTLVTVSS
VL: DIELTQPPSVSVSPGQTASITCSGDNIPSYFVHWYQQKPGQAPVLVIYDDNDRPSGIPERFSGSNSGNTATLTISGTQAEDEADYYCSSWDQDTVVFGGGTKLTVLG

Residue numbers refer to the chain shown, from its start.

T5 sequence (P10721 other isoform, or with tags, fused parts or gaps limits assumed): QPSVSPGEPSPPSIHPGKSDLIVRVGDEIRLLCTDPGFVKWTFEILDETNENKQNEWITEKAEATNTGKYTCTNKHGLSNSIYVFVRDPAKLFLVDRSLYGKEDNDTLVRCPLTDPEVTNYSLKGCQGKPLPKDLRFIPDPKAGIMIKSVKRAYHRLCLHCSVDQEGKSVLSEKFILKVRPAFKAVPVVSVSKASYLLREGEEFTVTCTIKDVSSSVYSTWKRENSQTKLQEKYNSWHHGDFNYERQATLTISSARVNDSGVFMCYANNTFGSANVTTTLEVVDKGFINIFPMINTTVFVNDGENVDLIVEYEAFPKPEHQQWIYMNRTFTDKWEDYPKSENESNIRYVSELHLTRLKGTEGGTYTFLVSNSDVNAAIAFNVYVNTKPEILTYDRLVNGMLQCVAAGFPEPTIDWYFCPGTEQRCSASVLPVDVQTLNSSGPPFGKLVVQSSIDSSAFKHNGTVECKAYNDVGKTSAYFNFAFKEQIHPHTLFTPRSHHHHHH
T4 sequence (P10721 other isoform, or with tags, fused parts or gaps limits assumed): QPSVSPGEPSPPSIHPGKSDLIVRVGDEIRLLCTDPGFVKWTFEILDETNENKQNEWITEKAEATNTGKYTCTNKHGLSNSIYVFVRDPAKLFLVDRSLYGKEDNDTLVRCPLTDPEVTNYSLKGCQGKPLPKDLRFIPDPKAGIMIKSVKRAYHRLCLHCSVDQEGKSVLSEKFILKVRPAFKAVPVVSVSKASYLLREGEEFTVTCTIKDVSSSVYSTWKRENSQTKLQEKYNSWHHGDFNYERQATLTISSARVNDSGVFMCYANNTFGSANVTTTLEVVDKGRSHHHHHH

One assay concerns the target T4, Human cKIT D1-3 (ECD subdomains 1-3, ligand binding domain) (human, UniProt P10721 26-311).
T4 construct: also called cKIT subdomains 1-3
Description: ELISA on coated cKIT ECD subdomains. On the technique in general: In an ELISA, binding on a coated surface is turned into a signal by an enzyme label.
For B1, the binding result is “binds”.

In a further assay the target is T1, Mouse cKIT ECD, C-terminal 6x His (Sino …). Description: SPR (Biacore 2000): antibody captured by anti-human Fc, cKIT ECD in solution. How it is done: (§1) Affinity of the antibodies to cKIT species orthologues and also to cKIT was determined using SPR technology using a Biacore® 2000 instrument (GE Healthcare, Pittsburgh, Pa.) and with CM5 sensor chips.
(§2) Briefly, HBS-P (0.01 M HEPES, pH 7.4, 0.15 M NaCl, 0.005% Surfactant P20) supplemented with 2% Odyssey® blocking buffer (Li-Cor Biosciences, Lincoln, Nebr.) was used as the running buffer for all the experiments. The immobilization level and analyte interactions were measured by response unit (RU).
(§3) For kinetic measurements, the experiments were performed in which the antibodies were captured to the sensor chip surface via the immobilized anti-human Fc antibody and the ability of the cKIT proteins to bind in free solution was determined. […] 0.1-1 μg/ml of test antibodies were then injected at 10 μl/min for 1 minute. […] Subsequently, 3.125-50 nM of cKIT receptor extracellular domains (ECD) were diluted in a 2-fold series and injected at a flow rate of 40 μl/min for 3 min over both reference and test flow cells. Table of tested ECDs is listed below (Table 6). Dissociation of the binding was followed for 10 min. After each injection cycle, the chip surface was regenerated with 3 M MgCl₂ at 10 μl/min for 30 seconds.
Background: SPR reads the build-up and loss of mass on a sensor chip optically.
In the case of B2, the binding result was “no binding (tested: 3.125-50 nM ECD injected)”.
Same read-out and setting: for B3 the value was “no binding (tested: 3.125-50 nM ECD injected)”.
On the same count and under the same terms, for B1 the value was “no binding (tested: 3.125-50 nM ECD injected)”.
As for B4, the binding result is “no binding (tested: 3.125-50 nM ECD injected)”.
On the same count and under the same terms, for B5 the value was “no binding (tested: 3.125-50 nM ECD injected)”.
Consider B6, for which the binding result is given as “no binding (tested: 3.125-50 nM ECD injected)”.
Same read-out and setting: for B7 the value was “no binding (tested: 3.125-50 nM ECD injected)”; for B8, “no binding (tested: 3.125-50 nM ECD injected)”.

For the next assay, the target named is T2, Rat cKIT D1-5, C-terminal mFc. Described as above. How it is done:
as §1, §2, §3
Turning to B2, the binding result was “no binding (tested: 3.125-50 nM ECD injected)”.
The same measure, in the same setting: for B3 the value was “no binding (tested: 3.125-50 nM ECD injected)”; for B1, “no binding (tested: 3.125-50 nM ECD injected)”; for B4, “no binding (tested: 3.125-50 nM ECD injected)”.
As for B5, the binding result is reported as “no binding (tested: 3.125-50 nM ECD injected)”.
Consider B6, for which the binding result is reported as “no binding (tested: 3.125-50 nM ECD injected)”.
The same measure, in the same setting: for B7 the value was “no binding (tested: 3.125-50 nM ECD injected)”; for B8, “no binding (tested: 3.125-50 nM ECD injected)”; for B9, “no binding (tested: 3.125-50 nM ECD injected)”.

A further assay has as its target T5, Human cKIT D1-5 (human cKIT ECD, C-terminal 6x His) (human, UniProt P10721 26-524).
T5 construct: also called human cKIT-His
Description: SPR (Biacore 2000): antibody captured by anti-human Fc on CM5, cKIT ECD in solution, 25 C, 1:1 fit. How it is done:
as §1, §2, §3
Regarding B2, binding was put at a Kd of 1.44 nM.
B3: binding was put at a Kd of 1.34 nM.
Turning to B4, the Kd (usually the free concentration of one partner at which half of the binding sites on the other are occupied at equilibrium, for simple one-to-one binding) amounted to 8.4 nM.
Same read-out and setting: for B5 the value was 1.13 nM; for B6, 1.31 nM.
Same read-out and setting: with B8 the figure was 20 nM; with B9, 9.1 nM.

A further assay concerns the target T3, Cynomolgus monkey cKIT D1-5 (cyno cKIT …). The assay is described as above. How it is done: as §1, §2, §3
B2 came in with a Kd of 1.34 nM.
B4 returned a dissociation constant Kd of 6.14 nM.
As to B5, the Kd stood at 1.39 nM.
Still for that read-out and setting: with B6 the figure was 1.15 nM.
On to B7, for which binding was put at a Kd of 0.56 nM.
On the same count and under the same terms, for B9 the value was 4.8 nM.

In a further assay the target is T1, Mouse cKIT ECD, C-terminal 6x His (Sino …). The assay is described as above. How it is done:
as §1, §2, §3
B9 gave a Kd of 2.5 nM.
